Publication PMC3666314

Molecular target: biotinylated PECAM-1 Y663,pY686 peptide (human)
Assay: flow cytometry bead-based binding assay

B1: GST fusion protein containing the SH2 domain of Csk (domain or fragment)
chain: WFHGKITREQAERLLYPPETGLFLVRESTNYPGDYTLCVSCDGKVEHYRIMYHASKLSIDEEVYFENLMQLVEHYTSDADGLCTRLIKPK
With B1 the binding relative to the Lyn SH2 domain was 2 fold.
